What was measured:
Assay in all cases: SPR steady state
His-tagged human FcyRIIA = molecular target: T1, His-tagged human FcyRIIA (human, UniProt P12318 36-218)
T1 chain: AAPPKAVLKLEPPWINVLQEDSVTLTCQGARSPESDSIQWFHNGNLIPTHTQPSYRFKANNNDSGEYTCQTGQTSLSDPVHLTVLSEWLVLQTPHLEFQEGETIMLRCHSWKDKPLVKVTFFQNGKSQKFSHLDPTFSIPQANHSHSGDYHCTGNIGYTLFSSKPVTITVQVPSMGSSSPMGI

[1] = molecular target: His-tagged human FcyRIIIA (human, UniProt P08637 17-208)
His-tagged human FcyRIIB = molecular target: T2, His-tagged human FcyRIIB (human, UniProt P31994 46-217)
T2 chain: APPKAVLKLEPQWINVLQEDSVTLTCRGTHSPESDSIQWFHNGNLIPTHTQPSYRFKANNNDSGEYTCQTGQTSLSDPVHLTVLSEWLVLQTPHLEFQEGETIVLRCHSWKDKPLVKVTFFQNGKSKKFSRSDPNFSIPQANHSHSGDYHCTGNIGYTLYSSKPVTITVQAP

His-tagged human FcyRIIIA, sequence (P08637 17-208): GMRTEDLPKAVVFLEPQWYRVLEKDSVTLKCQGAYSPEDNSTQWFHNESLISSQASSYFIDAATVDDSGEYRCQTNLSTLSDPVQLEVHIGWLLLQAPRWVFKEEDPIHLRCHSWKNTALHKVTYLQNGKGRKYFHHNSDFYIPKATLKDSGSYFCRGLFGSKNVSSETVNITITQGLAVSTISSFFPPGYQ

B1: Control Antibody A (Lot- L2), 9F7_VH_IgG4 (antibody)
constant: ASTKGPSVFPLAPCSRSTSESTAALGCLVKDYFPEPVTVSWNSGALTSGVHTFPAVLQSSGLYSLSSVVTVPSSSLGTKTYTCNVDHKPSNTKVDKRVESKYGPPCPSCPAPEFLGGPSVFLFPPKPKDTLMISRTPEVTCVVVDVSQEDPEVQFNWYVDGVEVHNAKTKPREEQFNSTYRVVSVLTVLHQDWLNGKEYKCKVSNKGLPSSIEKTISKAKGQPREPQVYTLPPSQEEMTKNQVSLTCLVKGFYPSDIAVEWESNGQPENNYKTTPPVLDSDGSFFLYSRLTVDKSRWQEGNVFSCSVMHEALHNRFTQKSLSLSLGK
- Kd (His-tagged human FcyRIIA): 16.8 µM
- Kd [1]: 140 µM
- Kd (His-tagged human FcyRIIB): 2.2 µM
